Values joined by “and” are separate entries in the source; they are usually repeats but may differ in a detail not shown here. Equal values may be shown once.
What was measured:
Assay in all cases: anti-Flag IP-MS, mES nuclear extract
[1] = molecular target: Aars (mouse) (UniProt Q8BGQ7)
[2] = molecular target: Aff4 (mouse) (UniProt Q9ESC8)
[3] = molecular target: Bst2 (mouse) (UniProt Q8R2Q8)
[4] = molecular target: Calu (mouse) (UniProt O35887)
[5] = molecular target: Cct7 (mouse) (UniProt P80313)
[6] = molecular target: Chd4 (mouse) (UniProt Q6PDQ2)
[7] = molecular target: Copa (mouse) (UniProt Q8CIE6)
[8] = molecular target: Dars (mouse) (UniProt Q922B2)
[9] = molecular target: Dnaja2 (mouse) (UniProt Q9QYJ0)
[10] = molecular target: Dnmt3l (mouse) (UniProt Q9CWR8)
[11] = molecular target: Gm1040 (mouse) (UniProt Q3UFM5)
[12] = molecular target: Hspa5 (mouse) (UniProt P20029)
[13] = molecular target: Kars (mouse) (UniProt Q99MN1)
[14] = molecular target: Lars (mouse) (UniProt Q8BMJ2)
[15] = molecular target: Lmo7 (mouse) (UniProt E9PYF4)
[16] = molecular target: Mcm3 (mouse) (UniProt P25206)
[17] = molecular target: Mtap1b (mouse) (UniProt P14873)
[18] = molecular target: Nsd1 (mouse) (UniProt O88491)
[19] = molecular target: Nup214 (mouse) (UniProt Q80U93)
[20] = molecular target: Psmd2 (mouse) (UniProt Q8VDM4)
[21] = molecular target: Pum1 (mouse) (UniProt Q80U78)
[22] = molecular target: Ranbp2 (mouse) (UniProt Q9ERU9)
[23] = molecular target: Rfc2 (mouse) (UniProt Q9WUK4)
[24] = molecular target: Rfc5 (mouse) (UniProt Q9D0F6)
[25] = molecular target: Ruvbl2 (mouse) (UniProt Q9WTM5)
[26] = molecular target: Smarca1 (mouse) (UniProt Q6PGB8)
[27] = molecular target: Smarcc1 (mouse) (UniProt P97496)
[28] = molecular target: Smc2 (mouse) (UniProt Q8CG48)
[29] = molecular target: Tip2 (mouse)
[30] = molecular target: Tmpo (mouse)
[31] = molecular target: Ywhab (mouse) (UniProt Q9CQV8)
[32] = molecular target: Kif23 (mouse) (UniProt E9Q5G3)

Sequence of Dars (mouse) (Q922B2 whole entry): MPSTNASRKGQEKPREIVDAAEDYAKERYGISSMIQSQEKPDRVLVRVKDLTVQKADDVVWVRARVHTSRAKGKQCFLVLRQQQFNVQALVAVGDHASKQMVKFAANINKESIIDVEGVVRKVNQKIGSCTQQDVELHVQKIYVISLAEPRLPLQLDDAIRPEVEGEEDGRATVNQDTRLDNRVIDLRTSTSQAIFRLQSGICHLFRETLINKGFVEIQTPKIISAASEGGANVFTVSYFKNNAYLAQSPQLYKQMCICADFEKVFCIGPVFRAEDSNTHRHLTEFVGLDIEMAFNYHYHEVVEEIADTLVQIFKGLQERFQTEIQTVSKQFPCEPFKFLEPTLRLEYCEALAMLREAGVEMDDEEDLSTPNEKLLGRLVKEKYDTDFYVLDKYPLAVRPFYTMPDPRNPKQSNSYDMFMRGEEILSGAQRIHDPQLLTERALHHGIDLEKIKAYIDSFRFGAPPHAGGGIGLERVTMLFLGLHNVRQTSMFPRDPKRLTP
Sequence of Mtap1b (mouse) (P14873 2-2464 limits assumed): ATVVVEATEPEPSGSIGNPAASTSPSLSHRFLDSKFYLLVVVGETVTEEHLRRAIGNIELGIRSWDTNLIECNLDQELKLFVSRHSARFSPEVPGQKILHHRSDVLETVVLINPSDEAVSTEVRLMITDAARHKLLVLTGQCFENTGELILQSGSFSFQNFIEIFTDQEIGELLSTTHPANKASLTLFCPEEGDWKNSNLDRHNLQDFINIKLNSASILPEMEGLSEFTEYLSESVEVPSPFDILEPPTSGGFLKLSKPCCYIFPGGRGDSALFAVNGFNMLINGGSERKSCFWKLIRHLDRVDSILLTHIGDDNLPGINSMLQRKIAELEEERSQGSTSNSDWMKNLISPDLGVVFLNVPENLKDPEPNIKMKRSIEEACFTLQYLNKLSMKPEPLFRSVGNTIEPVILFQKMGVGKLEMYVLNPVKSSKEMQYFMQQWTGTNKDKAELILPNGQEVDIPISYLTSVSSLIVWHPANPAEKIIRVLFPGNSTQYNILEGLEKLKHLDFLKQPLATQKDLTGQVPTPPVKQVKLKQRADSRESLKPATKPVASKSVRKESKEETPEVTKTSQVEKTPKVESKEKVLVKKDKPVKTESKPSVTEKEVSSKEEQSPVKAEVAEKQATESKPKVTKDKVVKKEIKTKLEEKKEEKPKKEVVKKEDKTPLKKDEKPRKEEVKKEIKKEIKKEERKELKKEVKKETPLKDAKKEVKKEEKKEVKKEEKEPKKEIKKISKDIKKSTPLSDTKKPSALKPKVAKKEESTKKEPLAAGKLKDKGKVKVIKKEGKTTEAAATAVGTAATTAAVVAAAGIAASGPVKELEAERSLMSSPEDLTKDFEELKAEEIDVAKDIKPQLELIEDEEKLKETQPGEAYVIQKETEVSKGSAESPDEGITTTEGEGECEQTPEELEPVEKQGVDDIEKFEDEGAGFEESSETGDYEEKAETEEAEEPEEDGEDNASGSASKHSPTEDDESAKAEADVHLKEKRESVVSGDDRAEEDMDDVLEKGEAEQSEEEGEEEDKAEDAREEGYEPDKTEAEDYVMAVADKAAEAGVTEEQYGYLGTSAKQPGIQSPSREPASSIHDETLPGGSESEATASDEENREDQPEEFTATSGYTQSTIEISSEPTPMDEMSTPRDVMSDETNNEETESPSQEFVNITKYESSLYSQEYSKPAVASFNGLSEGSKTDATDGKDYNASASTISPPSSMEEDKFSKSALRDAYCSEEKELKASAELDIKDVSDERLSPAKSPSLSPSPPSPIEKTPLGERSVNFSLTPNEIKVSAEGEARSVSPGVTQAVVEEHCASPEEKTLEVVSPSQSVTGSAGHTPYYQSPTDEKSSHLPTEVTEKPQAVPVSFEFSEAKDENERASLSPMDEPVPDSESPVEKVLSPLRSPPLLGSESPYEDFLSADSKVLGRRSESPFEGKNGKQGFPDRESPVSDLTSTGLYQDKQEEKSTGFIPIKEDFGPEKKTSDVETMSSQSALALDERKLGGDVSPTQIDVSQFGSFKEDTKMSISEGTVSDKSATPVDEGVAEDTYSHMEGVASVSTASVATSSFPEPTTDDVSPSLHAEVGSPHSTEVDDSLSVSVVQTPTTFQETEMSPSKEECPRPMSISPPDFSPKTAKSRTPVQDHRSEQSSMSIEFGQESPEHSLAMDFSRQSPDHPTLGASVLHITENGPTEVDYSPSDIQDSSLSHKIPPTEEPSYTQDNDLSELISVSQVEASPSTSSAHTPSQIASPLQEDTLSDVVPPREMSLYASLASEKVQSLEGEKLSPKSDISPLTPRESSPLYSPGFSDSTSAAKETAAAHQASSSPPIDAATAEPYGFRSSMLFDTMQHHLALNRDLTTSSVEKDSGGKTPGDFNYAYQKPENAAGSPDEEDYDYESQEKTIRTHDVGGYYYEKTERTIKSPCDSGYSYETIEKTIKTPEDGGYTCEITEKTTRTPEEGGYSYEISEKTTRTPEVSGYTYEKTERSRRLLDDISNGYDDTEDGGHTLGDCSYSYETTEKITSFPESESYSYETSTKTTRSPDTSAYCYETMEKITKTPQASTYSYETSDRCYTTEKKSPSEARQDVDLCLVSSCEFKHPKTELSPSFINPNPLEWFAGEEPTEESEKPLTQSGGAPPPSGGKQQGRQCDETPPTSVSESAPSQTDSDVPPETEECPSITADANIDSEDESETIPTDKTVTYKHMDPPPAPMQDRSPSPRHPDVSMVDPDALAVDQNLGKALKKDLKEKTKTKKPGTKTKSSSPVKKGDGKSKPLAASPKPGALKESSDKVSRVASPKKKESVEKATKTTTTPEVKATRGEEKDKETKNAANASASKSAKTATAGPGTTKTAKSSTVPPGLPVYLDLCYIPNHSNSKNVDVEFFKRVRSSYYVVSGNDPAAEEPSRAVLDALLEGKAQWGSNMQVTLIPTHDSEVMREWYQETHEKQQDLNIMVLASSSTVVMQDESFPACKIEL
Sequence of Pum1 (mouse) (Q80U78 2-1189 limits assumed): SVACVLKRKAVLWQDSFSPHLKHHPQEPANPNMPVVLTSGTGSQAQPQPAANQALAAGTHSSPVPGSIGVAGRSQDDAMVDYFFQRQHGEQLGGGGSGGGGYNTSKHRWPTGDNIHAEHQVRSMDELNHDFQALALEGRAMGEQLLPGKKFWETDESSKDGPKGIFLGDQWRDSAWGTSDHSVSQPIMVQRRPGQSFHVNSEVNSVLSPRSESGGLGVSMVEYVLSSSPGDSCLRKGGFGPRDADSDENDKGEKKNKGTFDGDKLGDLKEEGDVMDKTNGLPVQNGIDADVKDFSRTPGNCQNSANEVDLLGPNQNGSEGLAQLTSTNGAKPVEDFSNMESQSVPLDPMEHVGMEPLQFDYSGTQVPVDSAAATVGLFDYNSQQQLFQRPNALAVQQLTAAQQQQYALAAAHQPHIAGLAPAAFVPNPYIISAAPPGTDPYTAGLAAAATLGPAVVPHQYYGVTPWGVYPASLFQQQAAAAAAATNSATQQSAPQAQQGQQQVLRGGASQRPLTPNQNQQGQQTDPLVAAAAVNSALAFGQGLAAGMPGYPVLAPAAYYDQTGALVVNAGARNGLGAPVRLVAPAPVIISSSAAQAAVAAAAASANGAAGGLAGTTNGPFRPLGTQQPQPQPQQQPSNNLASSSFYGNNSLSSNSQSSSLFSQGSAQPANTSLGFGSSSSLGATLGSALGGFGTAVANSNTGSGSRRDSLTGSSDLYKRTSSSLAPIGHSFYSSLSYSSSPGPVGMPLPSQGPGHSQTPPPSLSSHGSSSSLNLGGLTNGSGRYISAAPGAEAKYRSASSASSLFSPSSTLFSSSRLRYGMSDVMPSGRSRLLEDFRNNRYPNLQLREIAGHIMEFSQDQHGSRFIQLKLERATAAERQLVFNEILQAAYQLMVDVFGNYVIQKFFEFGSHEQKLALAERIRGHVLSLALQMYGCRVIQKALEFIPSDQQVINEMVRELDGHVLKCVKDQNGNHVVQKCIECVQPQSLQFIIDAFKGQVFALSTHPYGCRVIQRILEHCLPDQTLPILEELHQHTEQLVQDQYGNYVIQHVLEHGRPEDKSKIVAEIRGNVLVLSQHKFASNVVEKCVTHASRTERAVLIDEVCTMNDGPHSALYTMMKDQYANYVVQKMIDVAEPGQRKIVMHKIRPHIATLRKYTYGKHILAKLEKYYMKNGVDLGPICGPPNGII
Sequence of Dnaja2 (mouse) (Q9QYJ0 1-409 limits assumed): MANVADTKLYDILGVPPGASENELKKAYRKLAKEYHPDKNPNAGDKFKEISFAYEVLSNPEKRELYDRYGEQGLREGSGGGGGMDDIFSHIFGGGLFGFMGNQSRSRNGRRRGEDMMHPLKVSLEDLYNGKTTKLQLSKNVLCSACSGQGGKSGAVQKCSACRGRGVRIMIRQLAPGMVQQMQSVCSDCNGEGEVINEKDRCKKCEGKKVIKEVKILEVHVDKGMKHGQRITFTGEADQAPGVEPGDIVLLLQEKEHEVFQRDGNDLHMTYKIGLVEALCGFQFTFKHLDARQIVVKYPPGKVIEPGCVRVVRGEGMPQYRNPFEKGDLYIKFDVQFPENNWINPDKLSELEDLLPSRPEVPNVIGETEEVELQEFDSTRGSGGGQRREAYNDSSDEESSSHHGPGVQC
Sequence of Bst2 (mouse) (Q8R2Q8 1-152 limits assumed): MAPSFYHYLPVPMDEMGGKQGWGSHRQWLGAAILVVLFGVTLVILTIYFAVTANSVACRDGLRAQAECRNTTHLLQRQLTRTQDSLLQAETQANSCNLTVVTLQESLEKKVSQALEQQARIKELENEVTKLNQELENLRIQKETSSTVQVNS
Sequence of Ywhab (mouse) (Q9CQV8 whole entry): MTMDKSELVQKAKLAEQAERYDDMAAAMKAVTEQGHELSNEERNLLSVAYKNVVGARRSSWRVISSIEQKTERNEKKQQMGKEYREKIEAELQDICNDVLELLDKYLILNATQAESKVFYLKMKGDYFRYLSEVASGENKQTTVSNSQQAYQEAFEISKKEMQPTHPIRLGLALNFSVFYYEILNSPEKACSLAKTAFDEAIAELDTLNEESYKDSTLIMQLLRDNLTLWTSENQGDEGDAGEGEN

How did the Nucleus peptide [1] turn out when 2x Flag tag only (control) (peptide) was run?
The Nucleus peptide was 3 peptides.

And the Nucleus spectra [1]?
The Nucleus spectra was 4 spectra.

And the Nucleus peptide [2]?
Its Nucleus peptide is 0 peptides.

And the Nucleus spectra [2]?
The Nucleus spectra was 0 spectra.

And the Nucleus peptide [3]?
The Nucleus peptide was 1 peptides.

And the Nucleus spectra [3]?
The Nucleus spectra was 1 spectra.

And the Nucleus peptide [4]?
Its Nucleus peptide is 0 peptides.

And the Nucleus spectra [4]?
The Nucleus spectra was 0 spectra.

What about the Nucleus peptide [5] of the same substance?
Its Nucleus peptide is 0 peptides.

What about the Nucleus spectra [5] of the same substance?
The Nucleus spectra was 0 spectra.

What about the Nucleus peptide [6] of the same substance?
The Nucleus peptide was 4 peptides.

And the Nucleus spectra [6]?
The Nucleus spectra was 6 spectra.

What about the Nucleus peptide [7] of the same substance?
The Nucleus peptide was 1 peptides.

What about the Nucleus spectra [7] of the same substance?
Its Nucleus spectra is 4 spectra.

And the Nucleus peptide [8]?
The Nucleus peptide was 1 peptides.

What about the Nucleus spectra [8] of the same substance?
The Nucleus spectra was 2 spectra.

And the Nucleus peptide [9]?
The Nucleus peptide was 1 peptides.

What about the Nucleus spectra [9] of the same substance?
Its Nucleus spectra is 2 spectra.

What about the Nucleus peptide [10] of the same substance?
The Nucleus peptide was 2 peptides.

And the Nucleus spectra [10]?
The Nucleus spectra was 4 spectra.

What about the Nucleus peptide [11] of the same substance?
The Nucleus peptide was 1 peptides.

And the Nucleus spectra [11]?
The Nucleus spectra was 1 spectra.

And the Nucleus peptide [12]?
Its Nucleus peptide is 10 peptides.

And the Nucleus spectra [12]?
Its Nucleus spectra is 13 spectra.

What about the Nucleus peptide [13] of the same substance?
Its Nucleus peptide is 0 peptides.

And the Nucleus spectra [13]?
Its Nucleus spectra is 0 spectra.

What about the Nucleus peptide [14] of the same substance?
The Nucleus peptide was 4 peptides.

What about the Nucleus spectra [14] of the same substance?
The Nucleus spectra was 6 spectra.

And the Nucleus peptide [15]?
Its Nucleus peptide is 0 peptides.

And the Nucleus spectra [15]?
The Nucleus spectra was 0 spectra.

And the Nucleus peptide [16]?
Its Nucleus peptide is 5 peptides.

And the Nucleus spectra [16]?
Its Nucleus spectra is 7 spectra.

And the Nucleus peptide [17]?
Its Nucleus peptide is 0 peptides.

What about the Nucleus spectra [17] of the same substance?
Its Nucleus spectra is 0 spectra.

What about the Nucleus peptide [18] of the same substance?
Its Nucleus peptide is 1 peptides.

What about the Nucleus spectra [18] of the same substance?
Its Nucleus spectra is 2 spectra.

What about the Nucleus peptide [19] of the same substance?
Its Nucleus peptide is 7 peptides.

And the Nucleus spectra [19]?
Its Nucleus spectra is 11 spectra.

What about the Nucleus peptide [20] of the same substance?
The Nucleus peptide was 1 peptides.

And the Nucleus spectra [20]?
Its Nucleus spectra is 1 spectra.

And the Nucleus peptide [21]?
Its Nucleus peptide is 0 peptides.

What about the Nucleus spectra [21] of the same substance?
The Nucleus spectra was 0 spectra.

And the Nucleus peptide [22]?
The Nucleus peptide was 8 peptides.

What about the Nucleus spectra [22] of the same substance?
The Nucleus spectra was 12 spectra.

And the Nucleus peptide [23]?
The Nucleus peptide was 0 peptides.

What about the Nucleus spectra [23] of the same substance?
Its Nucleus spectra is 0 spectra.

What about the Nucleus peptide [24] of the same substance?
The Nucleus peptide was 0 peptides.

What about the Nucleus spectra [24] of the same substance?
Its Nucleus spectra is 0 spectra.

And the Nucleus peptide [25]?
The Nucleus peptide was 4 peptides.

And the Nucleus spectra [25]?
Its Nucleus spectra is 10 spectra.

What about the Nucleus peptide [26] of the same substance?
Its Nucleus peptide is 2 peptides.

And the Nucleus spectra [26]?
The Nucleus spectra was 3 spectra.

What about the Nucleus peptide [27] of the same substance?
Its Nucleus peptide is 4 peptides.

And the Nucleus spectra [27]?
Its Nucleus spectra is 4 spectra.

And the Nucleus peptide [28]?
Its Nucleus peptide is 4 peptides.

And the Nucleus spectra [28]?
Its Nucleus spectra is 6 spectra.

What about the Nucleus peptide [29] of the same substance?
Its Nucleus peptide is 6 peptides.

And the Nucleus spectra [29]?
Its Nucleus spectra is 14 spectra.

And the Nucleus peptide [30]?
The Nucleus peptide was 2 peptides.

And the Nucleus spectra [30]?
Its Nucleus spectra is 6 spectra.

What about the Nucleus peptide [31] of the same substance?
The Nucleus peptide was 0 peptides.

What about the Nucleus spectra [31] of the same substance?
The Nucleus spectra was 0 spectra.

“human AID containing two tandem Flag tags (Flag-human AID) (from UniProt Q9GZX7 1-198) (enzyme)” was tested. Which Nucleus peptide [1] did it give?
Its Nucleus peptide is 10 peptides.

What about the Nucleus spectra [1] of the same substance?
The Nucleus spectra was 21 spectra.

What about the Nucleus peptide [2] of the same substance?
Its Nucleus peptide is 13 peptides.

And the Nucleus spectra [2]?
The Nucleus spectra was 25 spectra.

And the Nucleus peptide [3]?
Its Nucleus peptide is 4 peptides.

What about the Nucleus spectra [3] of the same substance?
The Nucleus spectra was 12 spectra.

And the Nucleus peptide [4]?
The Nucleus peptide was 3 peptides.

What about the Nucleus spectra [4] of the same substance?
Its Nucleus spectra is 6 spectra.

And the Nucleus peptide [5]?
Its Nucleus peptide is 3 peptides.

What about the Nucleus spectra [5] of the same substance?
The Nucleus spectra was 5 spectra.

And the Nucleus peptide [6]?
Its Nucleus peptide is 15 peptides.

What about the Nucleus spectra [6] of the same substance?
The Nucleus spectra was 26 spectra.

What about the Nucleus peptide [7] of the same substance?
The Nucleus peptide was 5 peptides.

What about the Nucleus spectra [7] of the same substance?
Its Nucleus spectra is 9 spectra.

What about the Nucleus peptide [8] of the same substance?
The Nucleus peptide was 4 peptides.

What about the Nucleus spectra [8] of the same substance?
Its Nucleus spectra is 6 spectra.

What about the Nucleus peptide [9] of the same substance?
The Nucleus peptide was 12 peptides.

What about the Nucleus spectra [9] of the same substance?
The Nucleus spectra was 43 spectra.

And the Nucleus peptide [10]?
The Nucleus peptide was 4 peptides.

And the Nucleus spectra [10]?
The Nucleus spectra was 10 spectra.

And the Nucleus peptide [11]?
The Nucleus peptide was 5 peptides.

And the Nucleus spectra [11]?
The Nucleus spectra was 8 spectra.

What about the Nucleus peptide [12] of the same substance?
The Nucleus peptide was 13 peptides.

What about the Nucleus spectra [12] of the same substance?
Its Nucleus spectra is 30 spectra.

And the Nucleus peptide [13]?
Its Nucleus peptide is 6 peptides.

And the Nucleus spectra [13]?
The Nucleus spectra was 9 spectra.

What about the Nucleus peptide [32] of the same substance?
The Nucleus peptide was 4 peptides and 7 peptides.

And the Nucleus spectra [32]?
The Nucleus spectra was 11 spectra and 18 spectra.

What about the Nucleus peptide [14] of the same substance?
The Nucleus peptide was 9 peptides.

What about the Nucleus spectra [14] of the same substance?
Its Nucleus spectra is 13 spectra.

What about the Nucleus peptide [16] of the same substance?
Its Nucleus peptide is 9 peptides.

What about the Nucleus spectra [16] of the same substance?
The Nucleus spectra was 22 spectra.

What about the Nucleus peptide [17] of the same substance?
Its Nucleus peptide is 11 peptides.

What about the Nucleus spectra [17] of the same substance?
Its Nucleus spectra is 24 spectra.

And the Nucleus peptide [18]?
The Nucleus peptide was 4 peptides.

What about the Nucleus spectra [18] of the same substance?
Its Nucleus spectra is 5 spectra.

What about the Nucleus peptide [19] of the same substance?
The Nucleus peptide was 13 peptides.

And the Nucleus spectra [19]?
Its Nucleus spectra is 29 spectra.

What about the Nucleus peptide [20] of the same substance?
Its Nucleus peptide is 5 peptides.

And the Nucleus spectra [20]?
The Nucleus spectra was 12 spectra.

What about the Nucleus peptide [21] of the same substance?
The Nucleus peptide was 2 peptides.

What about the Nucleus spectra [21] of the same substance?
Its Nucleus spectra is 5 spectra.

What about the Nucleus peptide [22] of the same substance?
Its Nucleus peptide is 57 peptides.

And the Nucleus spectra [22]?
The Nucleus spectra was 160 spectra.

What about the Nucleus peptide [23] of the same substance?
Its Nucleus peptide is 3 peptides.

What about the Nucleus spectra [23] of the same substance?
The Nucleus spectra was 8 spectra.

And the Nucleus peptide [24]?
Its Nucleus peptide is 3 peptides.

What about the Nucleus spectra [24] of the same substance?
The Nucleus spectra was 5 spectra.

What about the Nucleus peptide [25] of the same substance?
Its Nucleus peptide is 12 peptides.

And the Nucleus spectra [25]?
The Nucleus spectra was 31 spectra.

What about the Nucleus peptide [26] of the same substance?
The Nucleus peptide was 7 peptides.

What about the Nucleus spectra [26] of the same substance?
Its Nucleus spectra is 14 spectra.

And the Nucleus peptide [27]?
The Nucleus peptide was 6 peptides.

What about the Nucleus spectra [27] of the same substance?
Its Nucleus spectra is 10 spectra.

And the Nucleus peptide [28]?
The Nucleus peptide was 7 peptides.

What about the Nucleus spectra [28] of the same substance?
Its Nucleus spectra is 16 spectra.

What about the Nucleus peptide [31] of the same substance?
Its Nucleus peptide is 3 peptides.

What about the Nucleus spectra [31] of the same substance?
The Nucleus spectra was 7 spectra.
